Measured values published in patent publication US20110166062A1.

What was measured:
Test in all cases: cell-based or functional assay
glucagon receptor = glucagon receptor (UniProt P47871)
GLP-1 receptor = GLP-1 receptor (UniProt P43220)
GIP receptor = GIP receptor (UniProt P48546)
Chain of GIP receptor (P48546 22-466): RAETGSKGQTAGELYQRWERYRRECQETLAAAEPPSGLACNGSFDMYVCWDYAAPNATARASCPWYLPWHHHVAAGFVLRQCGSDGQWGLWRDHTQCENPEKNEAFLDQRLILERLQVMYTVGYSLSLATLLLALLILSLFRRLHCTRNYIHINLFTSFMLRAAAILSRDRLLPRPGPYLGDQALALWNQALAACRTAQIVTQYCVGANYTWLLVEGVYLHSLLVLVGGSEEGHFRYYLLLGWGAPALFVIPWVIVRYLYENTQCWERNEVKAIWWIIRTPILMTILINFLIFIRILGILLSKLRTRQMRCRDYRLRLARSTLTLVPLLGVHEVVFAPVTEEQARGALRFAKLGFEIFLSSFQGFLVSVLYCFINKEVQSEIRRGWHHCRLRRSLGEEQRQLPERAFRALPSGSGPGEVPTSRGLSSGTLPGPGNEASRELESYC

Chain of glucagon receptor (P47871 26-477 limits assumed): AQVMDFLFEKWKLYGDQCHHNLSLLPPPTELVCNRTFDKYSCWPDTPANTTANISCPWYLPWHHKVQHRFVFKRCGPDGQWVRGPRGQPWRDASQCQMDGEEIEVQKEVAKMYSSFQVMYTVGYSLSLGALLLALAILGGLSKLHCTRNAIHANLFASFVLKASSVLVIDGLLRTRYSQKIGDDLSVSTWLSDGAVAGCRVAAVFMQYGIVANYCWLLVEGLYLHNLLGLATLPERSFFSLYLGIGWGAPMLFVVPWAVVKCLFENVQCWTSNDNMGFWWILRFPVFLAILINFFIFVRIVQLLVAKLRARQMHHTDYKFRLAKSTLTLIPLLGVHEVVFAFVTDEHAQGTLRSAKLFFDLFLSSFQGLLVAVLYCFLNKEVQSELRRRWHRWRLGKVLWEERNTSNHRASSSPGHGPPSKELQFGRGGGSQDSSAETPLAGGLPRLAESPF
Chain of GLP-1 receptor (P43220 24-463 limits assumed): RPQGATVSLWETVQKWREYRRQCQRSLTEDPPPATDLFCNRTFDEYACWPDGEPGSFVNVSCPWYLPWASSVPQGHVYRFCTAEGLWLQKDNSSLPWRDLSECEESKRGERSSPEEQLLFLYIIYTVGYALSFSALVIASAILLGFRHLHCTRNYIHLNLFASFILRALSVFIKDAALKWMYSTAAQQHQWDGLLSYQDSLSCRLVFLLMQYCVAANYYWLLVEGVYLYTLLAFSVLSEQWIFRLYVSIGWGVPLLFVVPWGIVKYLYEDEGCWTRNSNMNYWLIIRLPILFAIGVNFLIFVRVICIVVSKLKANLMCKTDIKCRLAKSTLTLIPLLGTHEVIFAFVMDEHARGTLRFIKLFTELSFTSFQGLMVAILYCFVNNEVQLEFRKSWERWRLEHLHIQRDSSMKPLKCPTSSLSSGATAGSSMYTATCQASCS

With mt-103 (peptide) the EC50 (glucagon receptor) was over 4 µM, the EC50 (GLP-1 receptor) was 26.9 nM and the EC50 (GIP receptor) was 0.242 nM.
Liraglutide (peptide) was tested, and the % activity at the glucagon receptor (glucagon receptor) was 0.04%.
